Four substances from publication doi:10.1101/2025.05.03.651265 can be followed below.

The target in assay [1] is E2CTD, C-terminal toxin domain of the GA1 T6SS effector E2 from Parabacteroides sp. D25 (Parabacteroides sp. D25). Description: ITC. To be noted: natural protein.
Assay [2] shares this target. Description: SEC-MALS; co-purified E2CTD-I2 complex at 2 mg/ml, Superdex 200 Increase 10/300, MiniDAWN detector and Optilab. (Size exclusion chromatography separates by hydrodynamic size, large species first.)

For orientation: Kd means the equilibrium constant for the complex coming apart. A low value points to higher affinity. On to “I2^BU, divergent cognate I2 protein from B. uniformis 82G1”, for which the Kd in assay [1] is 18 nM.
On the same count and under the same terms, in the case of “I2^PV, divergent cognate I2 protein from P. vulgatus AF31-3” it was 5.2 nM; in that of “cognate I2 immunity protein from Parabacteroides sp. D25, expressed and purified alone”, 27 nM.
One may read the stoichiometry N as a count of units in the complex or per binding partner. Take “cognate I2 immunity protein from Parabacteroides sp. D25, untagged, co-expressed with E2CTD (natural protein)”: the stoichiometry N in assay [2] was determined as 1.
